In the test the target is T1, Biotin-huCGRPaSA (human, not fully specified; biotin (position not given)).
T1 construct: exact construct ('aSA') not explained; also called Biotin CGRPaSA; full-length (1-37) CGRP
T1 peptide: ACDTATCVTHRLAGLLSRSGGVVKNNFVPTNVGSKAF
As to the kind of experiment: ELISA, supernatant; relative to chimeric C245. On the procedure: Biotin CGRPaSA was diluted with PBS (Hyclone) to 1.0 μg/mL, and the dilution was added to a microplate at 100 μL/well. The plate was let stand in an incubator at 37° C. and coated for 90 min and then washed, and 2% BSA was added to the plate at 200 μL/well. The plate was incubated in an incubator at 37° C. for 90 min and then washed. The humanized antibodies in Table 8 and the reference antibody (chimeric antibody C245) were diluted to 1000 ng/mL with a diluent (2% BSA) with a dilution factor of not more than 10. Then, the chimeric antibodies and the reference antibody were serially 2.5-fold diluted on a sample dilution plate. All the chimeric antibody solutions and the reference antibody solution were added into plates at 100 μL/well, and the plates were incubated in a thermostat incubator at 37° C. for 60 min and washed. An HRP-conjugated goat anti-human antibody IgG (manufacturer: Sigma, Cat. No. A0170; Fc specificity) was diluted 5000-fold with 2% BSA and added into the plates at 100 μL/well, and the plates were incubated in the thermostat incubator at 37° C. for 60 min and washed. Chromogenic reagent TMB was carefully added at 100 μL/well to avoid bubbles, and the system was incubated at 37° C. for 15 min away from light for chromogenic reaction. Finally, a 2 M hydrochloric acid solution was added at 100 μL/well to stop the reaction while avoiding bubbles, and the plates were read on a microplate reader within 10 min (wavelength: 450/620 nm).
A general note: ELISA stands for enzyme-linked immunosorbent assay.

B1: hu220 (antibody, V domains shown)
VH: QVQLVQSGAEVKKPGASVKVSCKASGYTFTDYNMHWVRQAPGQGLEWMGYIYPYNGHTVYNQKFRNRVTLTVDTSSSTAYMELRSLRSDDTAVYYCAREGLGGYWGQGTLVTVSS
VL: DIVLTQSPDSLAVSLGERATINCKASQNIDYGGYSYMNWYQQKPGQPPKVLIYSVFNLESGVPDRFSGSGSGTDFTLTISSLQAEDVAVYYCQQSNEAPYTFGQGTKLEIK
notes: 3H10 HC-2/3H10 LC2-1
On to B1, for which the “Relative binding activity, %” value amounted to 83%.

B2: hu217 (antibody, V domains shown)
VH: QVQLVQSGAEVKKPGASVKVSCKASGYTFTDYNMHWVRQAPGQGLEWMGYIYPYNGHTVYNQKFRNRVTLTVDTSSSTAYMELRSLRSDDTAVYYCAREGLGGYWGQGTLVTVSS
VL: DIVLTQSPDSLAVSLGERATINCQASQNIDGNTYMNWYQQKPGQPPKVLIYSIFNLESGVPDRFSGSGSGTDFTLTISSLQAEDVAVYYCQQSNDYPYTFGQGTKLEIK
notes: 3H10 HC-2/2B8 LC2-1
Consider B2, for which the “Relative binding activity, %” value was found to be 73%.

B3: hu178 (antibody, V domains shown)
VH: QVQLVQSGAEVKKPGASVKVSCKASGYTFTDYNMHWVRQAPGQGLEWMGYISPYNGGTAYNQKFKFRVTLTVDTSSSTAYMELSRLRSDDTVVYYCAREGLGGYWGQGTLVTVSS
VL: DIVLTQSPDSLAVSLGERATINCQASQNIDGNTYMNWYQQKPGQPPKVLIYSIFNLESGVPDRFSGSGSGTDFTLTISSLQAEDVAVYYCQQSNDYPYTFGQGTKLEIK
notes: 3E5 HC-3/2B8 LC2-1
Turning to B3, the “Relative binding activity, %” value turned out to be 65%.

B4: hu61 (antibody, V domains shown)
VH: QVQLVQSGAEVKKPGASVKVSCKASGYTFTDFNMHWVRQAPGQGLEWMGYIYPYNGDVVYNQNFTNRVTLTVDTSSSTAYMELRSLRSDDTAVYYCAREGLGGYWGQGTLVTVSS
VL: DIVLTQSPDSLAVSLGERATINCQASQNIDGNTYMNWYQQKPGQPPKVLIYSIFNLESGVPDRFSGSGSGTDFTLTISSLQAEDVAVYYCQQSNDYPYTFGQGTKLEIK
notes: 1F5 HC-3/2B8 LC2-1
For B4, the “Relative binding activity, %” value turned out to be 56%.

B5: hu139 (antibody, V domains shown)
VH: QVQLVQSGAEVKKPGASVKVSCKASGYTFTDYNMHWVRQAPGQGLEWMGNIYPYNAGTVYNQKFNNRVTLTVDTSSSTAYMELSRLRSDDTAVYYCAREGLGGYWGQGTLVTVSS
VL: DIVLTQSPDSLAVSLGERATINCQASQNIDGNTYMNWYQQKPGQPPKVLIYSIFNLESGVPDRFSGSGSGTDFTLTISSLQAEDVAVYYCQQSNDYPYTFGQGTKLEIK
notes: 2B8 HC1-3/2B8 LC2-1
Consider B5, for which the “Relative binding activity, %” value came to 84%.

B6: hu22 (antibody, V domains shown)
VH: QVQLVQSGAEVKKPGASVKVSCKASGYTFTDYNMHWVRQAPGQRLEWMGYIFPYNGVAVYNRKFRSRVTLTVDTSSSTAYMELSSLRSEDTAVYYCAREGLGGYWGQGTLVTVSS
VL: DIVLTQSPDSLAVSLGERATINCQASQNIDGNTYMNWYQQKPGQPPKVLIYSIFNLESGVPDRFSGSGSGTDFTLTISSLQAEDVAVYYCQQSNDYPYTFGQGTKLEIK
notes: 1B2 HC-2/2B8 LC2-1
B6: the “Relative binding activity, %” value was determined as 76%.

B7: hu35 (antibody, V domains shown)
VH: QVQLVQSGAEVKKPGASVKVSCKASGYTFIDFNMHWVRQAPGQRLEWMGYIYPYNGDVVYNQNFTNRVTLTVDTSSSTAYMELSSLRSEDTAVYYCAREGLGGYWGQGTLVTVSS
VL: DIVLTQSPDSLAVSLGERATINCQASQNIDGNTYMNWYQQKPGQPPKVLIYSIFNLESGVPDRFSGSGSGTDFTLTISSLQAEDVAVYYCQQSNDYPYTFGQGTKLEIK
notes: 1F5 HC-1/2B8 LC2-1
Take B7: the “Relative binding activity, %” value was found to be 65%.

B8: hu126 (antibody, V domains shown)
VH: QVQLVQSGAEVKKPGASVKVSCKASGYTFTDYNMHWVRQAPGQGLEWMGNIYPYNGGTVYNQKFNNRVTLTVDTSSSTAYMELRSLRSDDTAVYYCAREGLGGYWGQGTLVTVSS
VL: DIVLTQSPDSLAVSLGERATINCQASQNIDGNTYMNWYQQKPGQPPKVLIYSIFNLESGVPDRFSGSGSGTDFTLTISSLQAEDVAVYYCQQSNDYPYTFGQGTKLEIK
notes: 2B8 HC1-2/2B8 LC2-1
Regarding B8, the “Relative binding activity, %” value was 79%.

B9: hu152 (antibody, V domains shown)
VH: QVQLVQSGAEVKKPGASVKVSCKTSGYTFTDYNMHWVRQAPGQRLEWMGYISPYNGGTAYNQKFKFRVTLTVDTSSSTAYMELSSLRSEDTAVYYCAREGLGGYWGQGTLVTVSS
VL: DIVLTQSPDSLAVSLGERATINCQASQNIDGNTYMNWYQQKPGQPPKVLIYSIFNLESGVPDRFSGSGSGTDFTLTISSLQAEDVAVYYCQQSNDYPYTFGQGTKLEIK
notes: 3E5 HC-1/2B8 LC2-1
With B9, the “Relative binding activity, %” value came to 109%.

B10: hu165 (antibody, V domains shown)
VH: QVQLVQSGAEVKKPGASVKVSCKASGYTFTDYNMHWVRQAPGQRLEWMGYISPYNGGTAYNQKFKFRVTLTVDTSSSTAYMELSSLRSEDTAVYYCAREGLGGYWGQGTLVTVSS
VL: DIVLTQSPDSLAVSLGERATINCQASQNIDGNTYMNWYQQKPGQPPKVLIYSIFNLESGVPDRFSGSGSGTDFTLTISSLQAEDVAVYYCQQSNDYPYTFGQGTKLEIK
notes: 3E5 HC-2/2B8 LC2-1
For B10, the “Relative binding activity, %” value was 87%.

B11: hu204 (antibody, V domains shown)
VH: QVQLVQSGAEVKKPGASVKVSCKASGYTFTDYNMHWVRQAPGQGLEWMGYIYPYNGHTVYNQKFRNRVTMTVDTSSSTAYMELRSLRSDDTAVYYCAKEGLGGYWGQGTLVTVSS
VL: DIVLTQSPDSLAVSLGERATINCQASQNIDGNTYMNWYQQKPGQPPKVLIYSIFNLESGVPDRFSGSGSGTDFTLTISSLQAEDVAVYYCQQSNDYPYTFGQGTKLEIK
notes: 3H10 HC-1/2B8 LC2-1
In the case of B11, the “Relative binding activity, %” value turned out to be 68%.

B12: hu48 (antibody, V domains shown)
VH: QVQLVQSGAEVKKPGASVKVSCKASGYTFTDFNMHWVRQAPGQRLEWMGYIYPYNGDVVYNQNFTNRVTLTVDTSSSTAYMELSSLRSEDTAVYYCAREGLGGYWGQGTLVTVSS
VL: DIVLTQSPDSLAVSLGERATINCQASQNIDGNTYMNWYQQKPGQPPKVLIYSIFNLESGVPDRFSGSGSGTDFTLTISSLQAEDVAVYYCQQSNDYPYTFGQGTKLEIK
notes: 1F5 HC-2/2B8 LC2-1
As for B12, the “Relative binding activity, %” value was determined as 40%.

B13: hu9 (antibody, V domains shown)
VH: QVQLVQSGAEVKKPGASVKVSCKASGYTFTDYNMHWVRQAPGQGLEWMGYIFPYNGVAVYNRKFRSRVTLTIDTSSSTAYMELRSLRSDDTAVYYCAREGLGGYWGQGTLVTVSS
VL: DIVLTQSPDSLAVSLGERATINCQASQNIDGNTYMNWYQQKPGQPPKVLIYSIFNLESGVPDRFSGSGSGTDFTLTISSLQAEDVAVYYCQQSNDYPYTFGQGTKLEIK
notes: 1B2 HC-1/2B8 LC2-1
Turning to B13, the “Relative binding activity, %” value came out at 45%.

B14: hu191 (antibody, V domains shown)
VH: QVQLVQSGAEVKKPGASVKVSCKTSGYTFTDYNMHWVRQAPGQRLEWMGYISPYNAGTAYNQKFKFRVTLTVDTSSSTAYMELSSLRSEDTAVYYCAREGLGGYWGQGTLVTVSS
VL: DIVLTQSPDSLAVSLGERATINCQASQNIDGNTYMNWYQQKPGQPPKVLIYSIFNLESGVPDRFSGSGSGTDFTLTISSLQAEDVAVYYCQQSNDYPYTFGQGTKLEIK
notes: 3E5 HC-4/2B8 LC2-1
With B14, the “Relative binding activity, %” value was 68%.

B15: hu113 (antibody, V domains shown)
VH: QVQLVQSGAEVKKPGASVKVSCKASGYTFTDYNMHWVRQAPGQGLEWMGNIYPYNGGTVYNQKFNNRVTLTVDTSSSTAYMELSRLRSDDTAVYYCAREGLGGYWGQGTLVTVSS
VL: DIVLTQSPDSLAVSLGERATINCQASQNIDGNTYMNWYQQKPGQPPKVLIYSIFNLESGVPDRFSGSGSGTDFTLTISSLQAEDVAVYYCQQSNDYPYTFGQGTKLEIK
notes: 2B8 HC1-1/2B8 LC2-1
Consider B15, for which the “Relative binding activity, %” value worked out at 44%.
